Laboratory results as given in patent US20230374140A1 (Memorial Sloan Kettering, published 2023).

B1: TCR mimic antibody clone 1 (mIgG1 clone 1 antibody) (antibody, V domains shown)
VH: EVQLVQSGAEVKKPGESLKISCEASGYSFSSNWIAWVRQRPGKGLEWMGIIYPGDSDTRYSPSFQGQVTMSADMSISTAYLQWSSLKASDTAMYYCARFAGPGMWSYGFDYWGQGTLVTVSS
VL: DIQLTQSPSSLSASVGDRVTITCRASQGIRNDLGWYQQKPGKAPKLMIYAASSLQSGVPSRFSGSGSGTDFTLTISSLQPEDFATYYCLQDYDYPLTFGGGTKLEIKR
notes: also called NDC80 clone 1 mAb; mouse version of NDC80 clone 1 mAb
B2: NDC80 Peptide A ALNEQIARL (synthetic peptide) (peptide)
peptide: ALNEQIARL
notes: Free peptide pulsed on T2 cells at 50 µg/ml in the HLA-A*02 stabilization assay; also called unmodified peptide; wild-type peptide
B3: TCR mimic antibody clone 11 (mIgG1 format) (antibody, V domains shown)
VH: QVQLVQSGAEVRKPGASVKVSCKASGYSFTSNGITWVRQAPGQGLEWMGWISGYNANTRYAQEFQARVTMTTDTSASTAYMELRSLRSDDTAVYYCARHAYWGGDSDYWGQGTLVTVSS
VL: NFMLTQPHSVSESPGKTVTISCTRSSGSIASNYVQWYQQRPGSAPTTVIYEDNQRPSGVPDRFSGSIDSSSNSASLTISGLKTEDEADYYCQSYDSSNVVFGGGTKLTVLG
notes: conjugated to PE for flow cytometry
B4: Clone 19 scFv phage clone (Clone 19 scFv) (scFv)
scFv: NFMLTQPHSVSESPGKTVTISCVRSSGSVASEFVQWYQQRPGHAPTLVIYNDFQRPSGVPDRFSGSIDKSSNSASLTISGLKAEDEADYYCQSYDQSSSIVFGGGTKLTVLGSRGGGGSGGGGSGGGGSLEMAEVQLVQSGAEVKKPGESLKISCKGSGYSFTTYWIGWVRQMPGKGLEWMGIIYPGDSDTTYSPSFQGQVTISADKSLSIAYLQWSSLKASDTAMYYCARYGGQYFWSDSFDSWGQGTLVTVSS
B5: Clone 7 scFv phage clone (Clone 07 scFv) (scFv)
scFv: QSVVTQPPSVSGAPGQRITISCTGSSSNIGAGYDVHWYQQLPGTAPKLLIFGNVNRPSGVPDRFSGSKSGTSASLAITGLQAEDEADYYCQSYDSSLSGWVFGGGTKLTVLGSRGGGGSGGGGSGGGGSLEMAQVQLQQSGAEVKKPGATVKVSCKASGYTFTSYGISWVRQAPGQGLEWMGWISAYNGNTNYAQKLQGRVTMTTDTSTSTAYMELRSLRSDDTAVYYCARMSMSEYIDYWGQGTLVTVSS

What was measured:
[1] = biological target: T1, NDC80 derived peptide … / HLA-A*02:01 complex (human); assay: flow cytometry, antibody on pulsed T2 cells
T1 construct: whole, on cells; On pulsed T2 cells

[2] = biological target: T2, NDC80 derived peptide … / HLA-A*02:01 complex (human); assay: flow cytometry, antibody on pulsed T2 cells; remark: listed apart in the source
T2 construct: whole, on cells; On pulsed T2 cells

[3] = biological target: T3, NC1 peptide … / HLA-A*02:01 complex (human); assay: immunopurification from BV173 cell lysate and LC-MS/MS, relative quantitation
T3 construct: whole, on cells; On pulsed T2 cells; also pulled down from BV173 lysate (HLA-A*02) and presented on JMN cells
Description: (§1) 200M BV173 cells were lysed with 1% CHAPS, incubated for 1h in the cold room and spun down at 20,000 g for 50 min.

[4] = biological target: T4, NC3 peptide … / HLA-A*02:01 complex (human); assay: as above
T4 construct: whole, on cells; On pulsed T2 cells; also pulled down from BV173 lysate (HLA-A*02)
Description: as §1

… / HLA-A*02:01 complex [5] = biological target: T5, … / HLA-A*02:01 complex (human); assay: as above
T5 construct: whole, on cells; On pulsed T2 cells; also pulled down from BV173 lysate (HLA-A*02)
Description: as §1

… / HLA-A*02:01 complex [6] = biological target: T6, … / HLA-A*02:01 complex (human); assay: as above; remark: listed apart in the source
T6 construct: whole, on cells; On pulsed T2 cells; also pulled down from BV173 lysate (HLA-A*02)
Description: as §1

HLA-A*02:01 on T2 cells = biological target: T7, HLA-A*02:01 on T2 cells (human); assay: HLA-A*02 stabilization on pulsed T2 cells, BB7.2 staining, flow cytometry
T7 construct: whole, on cells; MHC class I molecule of TAP-deficient T2 cells, stabilized by exogenous peptide and detected with BB7.2; also called A*02 protein
Description: Flow Cytometry. T2 cells were pulsed overnight with 50 μg/ml of one of the indicated peptides. Pulsed T2 cells were then stained with either BB7.2-PE antibody specific for HLA-A*02 to ensure stabilization of T2 cells with the pulsed peptides or with the labeled TCR mimic antibodies for 30 min on ice as described herein. Cells were washed after incubation with FACS buffer, resuspended in FACS buffer supplemented with DAPI and analyzed using a BD Fortessa™ flow cytometer.
For alanine screening assays, alanine or glycine substituted peptides were purchased from Genemed Synthesis, Inc. (San Antonio, Texas, USA). Besides the unsubstituted sequence of [sequence] […] If in the original peptide sequence the amino acid present was an alanine, the amino acid was changed to glycine. All other amino acids were changed into alanines.

[7] = biological target: T8, NDC80 Peptide A … / HLA-A*02:01 complex (human); assay: flow cytometry, PE-conjugated antibody on pulsed T2 cells
T8 construct: whole, on cells; On peptide-pulsed T2 cells (HLA-A*02:01+); also called NDC80/HLA-A*02:01 complex; NDC80/MHC I
Description: Pulsed T2 cells were harvested, washed with FACS buffer (PBS, 2% FBS and 0.01% sodium azide) and incubated for 30 min, light-protected, on ice with 2 μg/ml of the labeled antibodies. After incubation, cells were washed again with FACS buffer and resuspended in FACS buffer supplemented with DAPI. For the experiments described in FIGS. 10A-10I, incubation with the TCR mimic antibodies was performed at 2, 10 and 50 μg/ml. Cells were analyzed on an LSRFortessa™ (BD) flow cytometer; the data were analyzed using FlowJo™ v9 software.

[8] = biological target: T8, NDC80 Peptide A … / HLA-A*02:01 complex; assay: FACS, scFv phage on peptide-loaded T2 cells
Excerpt: 34 human phage scFv libraries were used to pan against NDC80/HLA-A*02:01 complex. In order to avoid the conformational change of MHC I complex introduced by immobilizing the protein complex onto plastic surfaces, cell panning was used in place of conventional plate panning. In cell panning, the human scFv phage libraries were first mixed with T2 cells loaded with control peptides to remove scFv phage clones that bind to T2 cells alone or MHC alone. […] T2 is a TAP-deficient, HLA-A*02:01⁺ lymphoblast cell line that express low amounts of HLA-A*02 on the cell surface and can only present exogenous peptides. […] After extensive washing with PBS, peptide-loaded T2 cells with bound scFv antibody phage were spun down. […] The panning was performed for 3 rounds to enrich scFv phage clones that bound NDC80/HLA-A*02:01 specifically.

[9] = biological target: T3, NC1 peptide … / HLA-A*02:01 complex; assay: FACS, scFv phage on T2 cells loaded with single peptide
[10] = biological target: T9, NC2 peptide … / HLA-A*02:01 complex (human); assay: as above
T9 construct: whole, on cells; On pulsed T2 cells; also presented on JMN cells (HLA-A*02)

[11] = biological target: T4, NC3 peptide … / HLA-A*02:01 complex; assay: as above
[12] = biological target: T10, NC4 peptide … / HLA-A*02:01 complex (human); assay: as above
T10 construct: whole, on cells; On pulsed T2 cells

Row | Binder | binding result [8] | binding result [9] | binding result [10] | binding result [11] | binding result [12] | further results
1 | B1 | – | – | – | – | – | binding result [1]: no binding; binding result [2]: no binding; fold lower MS signal intensity than … [3]: 3 fold; fold lower MS signal intensity than … [4]: ≥ 3 fold; fold lower MS signal intensity than … (… / HLA-A*02:01 complex [5]): ≥ 3 fold; fold lower MS signal intensity than … (… / HLA-A*02:01 complex [6]): ≥ 3 fold
2 | B2 | – | – | – | – | – | binding result (HLA-A*02:01 on T2 cells): binds
3 | B3 | – | – | – | – | – | binding result [7]: binds
4 | B4 | binds | no binding | no binding | no binding | no binding | –
5 | B5 | binds | no binding | no binding | no binding | no binding | –
